# Values of other authors in publication PMC9206673.
# pKd: −log10 of the molar value.
# Tests used:
# [1] = molecular target: neurotransmitter receptor peptide
# Chain of Gephyrin (Q8BUV3 whole entry): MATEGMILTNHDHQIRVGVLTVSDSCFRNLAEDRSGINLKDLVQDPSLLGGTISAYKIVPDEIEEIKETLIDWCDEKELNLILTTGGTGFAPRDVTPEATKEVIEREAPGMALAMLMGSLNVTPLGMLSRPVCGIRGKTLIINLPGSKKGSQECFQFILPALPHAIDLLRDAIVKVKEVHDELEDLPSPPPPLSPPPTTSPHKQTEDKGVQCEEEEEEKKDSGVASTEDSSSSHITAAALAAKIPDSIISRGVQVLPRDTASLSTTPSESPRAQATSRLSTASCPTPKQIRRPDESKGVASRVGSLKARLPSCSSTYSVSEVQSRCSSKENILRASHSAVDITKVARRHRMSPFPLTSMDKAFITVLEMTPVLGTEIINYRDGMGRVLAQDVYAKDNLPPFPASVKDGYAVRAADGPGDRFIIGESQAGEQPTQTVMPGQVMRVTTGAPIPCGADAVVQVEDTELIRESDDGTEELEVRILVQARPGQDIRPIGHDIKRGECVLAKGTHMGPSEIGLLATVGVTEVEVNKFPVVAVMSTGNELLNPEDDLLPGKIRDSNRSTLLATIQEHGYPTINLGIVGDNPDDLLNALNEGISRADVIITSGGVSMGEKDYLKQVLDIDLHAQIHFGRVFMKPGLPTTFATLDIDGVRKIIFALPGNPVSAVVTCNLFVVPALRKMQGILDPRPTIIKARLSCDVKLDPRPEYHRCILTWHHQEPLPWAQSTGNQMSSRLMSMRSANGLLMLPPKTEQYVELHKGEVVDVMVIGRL
substance,measurement,setting,value
Gephyrin (from UniProt Q8BUV3),pKd,[1],6.85
same,pKd,gephyrin-binding peptide,9.85
